B1: TPR t1 (parent)
chain: GACCAAUCUGCCCUCAGAGCUCGAGAACAUCUUCGGAUGCAGAGGAGGCAGGCUUCGGUGGCGCGAUAGCGCCAACGUCCUCAACCUCCAAUGCAUCCCACCACAUGAUGAUGCCUGAAGAGCCUUGGUUUUUUG

Variants of: B1
Experiment: polymerase ribozyme fitness, log enrichment relative to wild type (log ratio); higher = more active; in vitro selection for triplet polymerase activity
Outline: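 Fitness compares each genotype's enrichment to that of the wild type on a logarithmic scale, averaging replicates with inverse-variance weights. The logarithm is base 2. Enrichment came from Illumina sequencing of input and output libraries after one triplicate round of in vitro selection, which included frozen incubation at −7 °C, of PCR-built, transcribed mutant libraries of each subunit of a heterodimeric triplet polymerase ribozyme. Only genotypes with ≥10 input reads and ≥1 read per output were kept.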

Variant | polymerase ribozyme fitness (log ratio)
U14A A46U G61A A84U C85U | -4.32
U14G C15U C49G G58A U78C | -5.83
C13U G39U A41G C72U U96G G117A | -3.31
U14A C124A | -0.31
U14A C62G C89U C123A | -3.6
C13U C56U C97G G127A | -4.74
U14A C85U | -2.79
C13U G63A C101U | -0.511
U14A C15U C88U U96C G120U | -1.94
U14C G58U C70U G71U | -3.19
C13U C34A U78G | -3.35
U14A A37C A43U A90U U130G | -2.85
C13U C85U C86G U106A | -0.767
U14A A29U | -3.64
C13U C28G C49U G69U | -1.49
C13U G51A C56G U78G C89U | -0.499
C13U G127C | -1.18
C13U U106A | -0.0681
U14A A90G | -2.78
U14C C70G C82U U106A | -3.34
C13U G57A G110U | -1.9
C13U U54A G61A | -0.0236
C13U G51U U116C | -3.09
C13U C73G G117A C124A | 0.844

Variant | polymerase ribozyme fitness (log ratio)
C13U C56A C62U C97A C102U | -5.15
U14C U132C | -1.36
U14A G63U G113A | -5.73
C13U U116C | 1.02
U14C G57U C80A U133A | -3.25
U14A C94G | -3.05
U14G C40A C62U | -3.06
U14A C88G C99U C123U U131G U134A | -3.82
U14G C15U C20G C70U C123A | -5.25
U14C G71C | -2.35
C13U C34A C64U A84C G113U | -4.89
C13U C70A C73U | -1.58
U14A G51U C124U G135A | -3.03
C13U G69A | -2.03
C13U C28U C40U A74U C124A | -1.32
C13U C34U C62A G120C C124U | -6.16
C13U U78A C79A U129G | -3.68
U14A G44C G58U | -2.72
C13U G63A U96A | -1.68
U14A G36U A46C A91U C114G A121U G122A | -5.85
C13U G39C G58A A118U G120U | 0.174
U14C U106A G110A U112A | -3.36
U14G A37C G47A G110U G120U | -5.99
U14A U112G | -0.736

Variant | polymerase ribozyme fitness (log ratio)
U14C C104U | -0.978
C13U G42C | -0.781
U14A C15A C20U U55G | -3.71
U14C A27U G44U C49A C94U G117C G127C | -7.98
C13U G71U C79G U81A | -3.02
U14A A83U C86A U112A U131A | -2.42
C13U C99U | -2.12
C13U G39A A91G C123A | 0.557
C13U G71C A95C | -1.52
U14A U33G A37U G42U G61C U109A | -6.69
C13U G25C U33G C70U U81A U109A | -6.3
C13U G52U C85U | -2.32
C13U G63C C76A U78A | -6.73
C13U C76U C86G | -2.13
C13U C79A A90C | -2.88
C13U G47A C82G C123G U125A | -1.19
C13U G71U | -0.508
U14A A37U A84G | -2.93
U14A G120C | 0.0767
U14C U21A G61A G117C | -3.39
U14G C53U C85A C88G | -3.97
U14G C49U G93C C101A | -4.35
U14C C34A U87A | -4.01
U14A C70U U126C G135U | -3.92

Variant | polymerase ribozyme fitness (log ratio)
U14C C49G A84C U106G U133G | -5.32
C13U G17A C62U U78A U81A U112A | -4.61
U14C C72A A111U | -6.13
U14G C40A | -2.06
C13U G60C G61A G117A | -2.25
C13U C124A | 1.91
C13U G48A G122U | 0.102
U14A A111C C115A | -5.18
C13U G36A | -0.918
C13U C64A | -6
C13U U78C U92G U106A | -2.62
U14C G110A | -2.2
C13U G23A A26G G61A C79U U106C | -4.2
C13U G47C | -1.18
C13U C62A A118U G122A | -2.35
C13U C49A G71A | -0.504
U14C A66U | -3.21
C13U C85G C123U | 0.618
C13U C86G | -0.454
U14A A18U G60C | -4.66
U14G A91C C97U | -4.05
U14C G127A U129A | -3.26
C13U U32G G35A G51A C114A G122C | -6.85
C13U C114G | -1.34

Variant | polymerase ribozyme fitness (log ratio)
C13U C114A | -1.07
C13U G63U C70G C114A G120C | -0.574
C13U U21C A27C U87G C114G | -6.59
U14A A74G G77C G120C | -0.447
U14G A121C | 0.71
U14A G71A | -2.77
U14A G93A C102U | -4.36
C13U C56U U81G A90G | -0.257
C13U G69A C82U | -2.59
C13U G60C G93A G110A U130A | -3.35
C13U C34U G52C C70A | -5.48
U14G C40A G42C C80U G120U | -3.6
U14A G61A A90C A91C | -4.3
C13U C115U | -0.41
C13U C49A G71C G127C | -1.9
C13U C56A C86A | -0.732
C13U C56U U67G G71U U106G C114G | -7.12
C13U C70U | -0.262
C13U C115U G117C | -6.41
C13U G120U | 0.513
C13U G63A | -0.373
C13U G42U A90U A95U | -1.89
C13U G45A A84U U87A | -1.98
U14A G57C G58A G61A C89U G127U U129C U130C | -6.54

Variant | polymerase ribozyme fitness (log ratio)
U14A G47C | -2.72
U14A G47U | -3.55
C13U G47A U78C G120A C123U U125A G128A | -0.365
C13U U109C | -2.24
C13U U109G | -4.64
C13U U109A | -5.03
C13U C56U C124G U131C | 2.69
C13U C34U G52C | -4.17
C13U C53U | 0.405
C13U C53G | -0.309
U14G A50C G63C C94A | -3.63
U14G C40G C73A A105U | -4.25
C13U G128A | -1.67
C13U G48U G110C | -4.34
C13U C94U A95C | -1.52
C13U G71A U78G U87A U131A | -1.51
U14C G93A | -2.47
U14G A37U A41G G47U C86A U87C | -4.82
C13U G42U C56U C114G C123A | -1.36
C13U G110C | -3.69
C13U C62A U78C A118U G122A | -2.29
C13U G47U G117U | -2.08
U14A A46C U81C C82U | -3.9
C13U G19C C70U | -2.89

Variant | polymerase ribozyme fitness (log ratio)
C13U G113U U125C | -1.89
U14A A105G | -5.21
U14C A26G A50G G52C U106C G117A | -5.87
C13U C82U C85A G117A | -2.68
C13U G77A | 0.00416
U14C G113A A118U | -4.79
U14C G60C U96A | -3.46
C13U U14C A50U G120A | -0.904
U14A U32C C82A | -3.24
U14A A66U C98U | -4.97
U14C G77C G113A | -5.53
U14A G36C G47A | -4.55
C13U G19C C40U C72U C98A G110U | -8.2
C13U G117C | -2.68
U14C G93U U112A | -2.43
C13U U14G A68G | -5.25
C13U G51A C56G C72A U78G C89U | -0.967
C13U U78C C80U | -0.408
U14A U30A A66U G69U U92G C94A G117C | -6.34
C13U U130A U133A | -1.2
C13U U30C A46U | -5.06
U14G C15U A37U C56A A66C | -5.37
C13U G39A | -0.593
